Reference: publication PMC4253602 (Molecular oncology, 2014)
Read-outs that look alike come from different tables or passages of the source.

B1: B49 (Gal-4 fusion) (peptide)
peptide: SKFSQLYSYEPP
B2: HF-26 (Gal-4 fusion) (peptide)
peptide: HASPFEMHYLLG
B3: B34 (Gal-4 fusion) (peptide)
peptide: SPFEEHYLSTQS
B4: B37 (Gal-4 fusion) (peptide)
peptide: HNTKFSTFYNMD
B5: A48 (Gal-4 fusion) (peptide)
peptide: DPPTSKFSTFYQ
B6: C314 (Gal-4 fusion) (peptide)
peptide: SSFADLWRNEAT
B7: A41 (Gal-4 fusion) (peptide)
peptide: SSGGFERFYIAQ
B8: #3-18 (Gal-4 fusion) (peptide)
peptide: NTNAFSRLFYPS
B9: A310 (Gal-4 fusion) (peptide)
peptide: SHSSFYQYYLDN
B10: ARN20 (Gal-4 fusion) (peptide)
peptide: RGAFQNLFQSV
B11: A49 (Gal-4 fusion) (peptide)
peptide: VLPGSTFERFYR
B12: BUD31 peptide (Gal-4 fusion) (peptide)
peptide: KTRYIFDLFYKRKAY
B13: B311 (Gal-4 fusion) (peptide)
peptide: HKASPFNYYYLN
B14: HF-15 (Gal-4 fusion) (peptide)
peptide: HTSMFESFFRKE
B15: B32 (Gal-4 fusion) (peptide)
peptide: NTTDTLFSQHYR
B16: B310 (Gal-4 fusion) (peptide)
peptide: SPTPHFTRLFHY
B17: C317 (Gal-4 fusion) (peptide)
peptide: TEPPAAFRQLFF
B18: A43 (Gal-4 fusion) (peptide)
peptide: PAPKFKEFFYAE
B19: C41 (Gal-4 fusion) (peptide)
peptide: SFYDFYNGASTP
B20: A47 (Gal-4 fusion) (peptide)
peptide: DSQYSSFSRYYK
B21: B46 (Gal-4 fusion) (peptide)
peptide: ANSSFRDWYTSS
B22: B426 (Gal-4 fusion) (peptide)
peptide: EASNSSFARLFH
B23: B411 (Gal-4 fusion) (peptide)
peptide: HPARTSFETHYM
B24: B423 (Gal-4 fusion) (peptide)
peptide: SPTRLFDHLYMT
B25: D30 (Gal-4 fusion) (peptide)
peptide: HPTHSSRLWELLMEATPTM
B26: C320 (Gal-4 fusion) (peptide)
peptide: SDSAFSRLYTRS
B27: C33 (Gal-4 fusion) (peptide)
peptide: STFESLYNNMTA
B28: B414 (Gal-4 fusion) (peptide)
peptide: NPRTPTTFERYY
B29: B45 (Gal-4 fusion) (peptide)
peptide: NTPLFQTFYNQR

What was measured:
[1] = biological target: ARN20-FY (biotinylated peptide) (human); test: SPR
[2] = biological target: ARN20-HY (biotinylated peptide) (human); test: SPR
[3] = biological target: ARN20-LY (biotinylated peptide) (human); test: SPR
[4] = biological target: ARN20-WY (biotinylated peptide) (human); test: SPR
[5] = biological target: C320-HY (biotinylated peptide); test: SPR
C320-LY (Biotin-C320) = test: SPR
[6] = biological target: C320-WY (biotinylated peptide); test: SPR
[7] = biological target: C320-YY (biotinylated peptide); test: SPR
[8] = biological target: full-length T877A-AR (VP16 fusion) (human); test: two-hybrid
[9] = biological target: full-length T877A-AR (VP16 fusion) (human); test: two-hybrid; remark: listed apart in the source
[10] = biological target: T1, full-length wt-AR (VP16 fusion) (human, UniProt P10275 1-920); test: two-hybrid
T1 sequence (looked up): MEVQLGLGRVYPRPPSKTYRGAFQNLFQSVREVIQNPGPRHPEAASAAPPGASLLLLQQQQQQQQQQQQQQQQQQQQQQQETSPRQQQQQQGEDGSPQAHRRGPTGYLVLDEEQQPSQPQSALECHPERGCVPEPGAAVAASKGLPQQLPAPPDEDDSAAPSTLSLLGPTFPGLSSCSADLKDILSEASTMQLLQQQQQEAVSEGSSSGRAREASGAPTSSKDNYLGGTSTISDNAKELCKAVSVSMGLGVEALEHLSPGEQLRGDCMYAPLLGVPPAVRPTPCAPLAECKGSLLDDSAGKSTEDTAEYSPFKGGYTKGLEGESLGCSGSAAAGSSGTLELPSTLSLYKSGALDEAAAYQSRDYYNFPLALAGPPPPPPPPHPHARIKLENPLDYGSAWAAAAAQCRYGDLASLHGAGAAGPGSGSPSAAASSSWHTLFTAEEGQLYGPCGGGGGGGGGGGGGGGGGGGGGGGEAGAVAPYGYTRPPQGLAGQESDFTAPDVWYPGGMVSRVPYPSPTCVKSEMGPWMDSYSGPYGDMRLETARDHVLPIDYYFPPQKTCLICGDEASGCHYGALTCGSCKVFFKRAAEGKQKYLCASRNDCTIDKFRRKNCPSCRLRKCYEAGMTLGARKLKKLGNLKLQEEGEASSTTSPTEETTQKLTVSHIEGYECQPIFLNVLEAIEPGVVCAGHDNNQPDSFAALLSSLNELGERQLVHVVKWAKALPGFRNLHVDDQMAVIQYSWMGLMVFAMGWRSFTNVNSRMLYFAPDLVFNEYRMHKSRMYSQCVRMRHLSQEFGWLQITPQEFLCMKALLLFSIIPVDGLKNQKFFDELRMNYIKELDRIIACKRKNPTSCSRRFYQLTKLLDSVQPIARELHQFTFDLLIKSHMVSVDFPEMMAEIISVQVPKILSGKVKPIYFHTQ

| Molecule | two-hybrid reporter activity (Gal-4 = 1) [8] | two-hybrid reporter activity (Gal-4 = 1) [9] | two-hybrid reporter activity (Gal-4 = 1) [10] | other results |
| --- | --- | --- | --- | --- |
| wild-type AR-DBD-LBD (domain or fragment) | – | – | – | Kd [1]: 38 nM; Kd [2]: 140000 nM; Kd [3]: 100 nM; Kd [4]: 500 nM; Kd [5]: 38000 nM; Kd (C320-LY (Biotin-C320)): 30 nM; Kd [6]: 140 nM; Kd [7]: 3800 nM |
| B1 | 318 | 1030 | 1790 | – |
| B2 | 8900 | 8400 | 8900 | – |
| B3 | – | 37 | 42 | – |
| B4 | 8710 | 6240 | 9160 | – |
| B5 | – | – | 32 | – |
| B6 | 121 | 859 | 1140 | – |
| B7 | 3510 | 3060 | 4310 | – |
| B8 | – | 11000 | 12500 | – |
| B9 | 4460 | 3590 | 4770 | – |
| B10 | 1420 | 1580 | 1310 | – |
| B11 | – | 26 | 25 | – |
| B12 | 4870 | 12000 | 8940 | – |
| B13 | – | – | 46 | – |
| B14 | 14500 | 13900 | 11500 | – |
| B15 | – | – | 41 | – |
| B16 | 6720 | 12100 | 17800 | – |
| B17 | 4380 | 5230 | 6600 | – |
| B18 | 8300 | 7350 | 8840 | – |
| B19 | – | – | 23 | – |
| B20 | – | – | 21 | – |
| B21 | 1260 | 376 | 792 | – |
| B22 | 1510 | 9550 | 13500 | – |
| B23 | 16 | – | 13 | – |
| B24 | 168 | 401 | 1220 | – |
| B25 | 8800 | 18100 | 19900 | – |
| B26 | 4650 | 12700 | 13400 | – |
| B27 | 399 | 1020 | 1330 | – |
| B28 | – | – | 18 | – |
| B29 | 17200 | 12600 | 18000 | – |
